According to the supplement of paper PMC10567573:

B1: C2CD2L (parent)
chain: LTLKVLRSSSCGDTELLGQATLPV
B2: CSNK1G1 (parent)
chain: GSLPWQGLKADTLKERYQKIGDTK
B3: SCNN1D (parent)
chain: IRVMVHGRNHTPFLGHHSFSVRPG

Variants of: B1
Assay: protein stability index of a GFP-peptide fusion (GPS, HEK-293T) (PSI 1-6); higher = more stable
Conditions: c terminus: a fixed tail appended
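Note: lentivirally expressed fusions sorted by FACS into six bins by GFP to DsRed ratio, PSI derived from sequencing read proportions per bin multiplied by bin number.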

Protein stability index of substitutions, site by site:
V5: Q 2.3, M 1.75, N 2.26, D 2.97, H 2.27
G12: S 1.92, F 3.92
A20: Q 2.09, K 3.04, P 1.96, R 1.44, S 1.48
G18: Y 1.77, M 2.32, Q 1.78, A 1.97, H 1.43, T 1.18
T2: C 2.32, K 2.17, R 1.64, D 1.95
L22: Q 1.28, Y 3.26, H 1.54, M 1.56, G 1.75, P 1.87
L3: S 2.74, P 3.51, A 2.59, H 2.51, I 4.28, Q 2.87
L1: R 2.29, S 2.74, W 2.67, K 1.99
D13: G 4.31, T 3.72, F 3.62
L17: E 2.7, A 2.08
P23: C 3.55, F 1.57
S9: A 1.95, W 3.38, K 1.4
C11: M 2.48, P 1.34, Q 1.43, D 1.8
V24: R 3.59, A 2.59, H 1.37, T 1.81, F 2.7
E15: N 3.3
L16: G 1.97, N 1.92, A 1.79, F 2.34, K 1.9, V 4.08, D 2.69, T 2.01
S10: P 2.45, L 2.44, C 3.45, Y 3.53, N 1.67
Q19: V 1.43, S 2.79, W 3.5, E 2.86, F 3.05, C 4.52, P 2.06, Y 3.56
T21: S 2.06, C 1.68, A 1.09, V 2.34, H 2.21
K4: E 2.12, N 1.19, W 2.53, G 2.46
R7: Q 1.33, E 1.96, V 1.85, S 1.13, L 3.52
T14: G 3.33, Q 1.95, A 3.11
L6: N 2.19, S 1.89, E 2.49, Y 3.33, K 2.17, I 2.83
S8: M 3.9, R 3.03, F 4.03, W 4.16

Variants of: B2
Assay: as above
Conditions: c terminus: a fixed tail appended

Protein stability index, by site and new letter:
L3: N 4.09, C 4.31, D 4.2, E 4.18, P 3.88, F 3.71, R 3.81, H 4.58, I 4.55, M 4.54, Q 4.63, A 4.38, K 4.12, G 4.42, S 4.2
S2: K 4.37, D 4.53, L 4.17, E 4.6, M 4.07, H 3.16, Y 4.01, F 3.73, T 4.21, V 3.35, G 3.69, A 4.14, I 3.47, C 3.22, N 4.11, Q 4.57, W 3.04, R 3.83, P 3.95
G1: E 4.44, R 4.16, N 4.13, Q 4.03, V 3.79, L 3.89, T 4.04, I 3.52, D 4.35, A 4.05, W 3.6, F 2.73, C 3.34, Y 2.08, S 3.97, P 4.15, H 4, K 4.17, M 4.35

Variants of: B3
Assay: as above
Conditions: c terminus: a fixed tail appended

Protein stability index: each site, then its substitutions
I1: L 1.31, R 3.65, M 1.89, E 2.04, Q 3, W 2.71, A 2.28, H 2.74, D 2.63, T 2.62, P 2.61, K 2.21, N 2.85, S 3.19, F 1.82
S20: N 1.84, T 2.59, K 2.98, I 2.92
H10: L 3.2, M 2.15, C 2.19, V 3.51, E 1.94
H17: Y 4.62, G 3.13, K 2.99, E 1.51, R 2.73, V 2.27, P 2.38, L 3.67, T 1.89
R8: A 2.25, H 3.06, E 2.47
R2: P 1.76, T 1.51, N 2.13, D 2.76, L 2.6, G 2.91, A 2.26, Q 1.58
F19: G 1.52, I 2.41, D 1.53, P 1.01, T 2.35, N 1.09, K 1.77, R 1.09, Q 1.77, M 1.87, H 1.91
N9: E 3.01, M 5.71, V 3.7, Y 4.19, C 1.89, G 2.67
R22: M 3.3, D 2.85, G 1.39, P 1.68, W 3.39, S 2.31, F 2.77
H6: T 2.35, K 3.76, F 1.91, E 2.27, A 2.13, Y 2.35, C 2.51, Q 3.67, D 2.53, P 2.34
H16: L 3.83, Q 3.16, S 2.26
G24: K 1.16, R 1.19, D 2.04, H 1.84, I 2.44, N 1.56
V3: D 2.17, P 2.75, R 2.13, W 1.6, L 2.11, S 2.13, G 2.33, N 1.85, A 2.42, Q 1.91, H 2.07, Y 2.43, T 2.2, K 3.58, F 1.93
F13: L 1.19, H 1.36, G 1.96, R 1, N 1.77, A 4.08, Y 2.77
L14: I 2.76, Y 2.42, N 2.43, H 2.23, Q 2.67, E 1.8, W 2.98
T11: Q 2.44, Y 3.8, F 2.59
P23: N 2.25, K 1.44, A 1.32, W 1.89, T 1.8, Q 1.64, S 2.45
G15: Q 1.54, E 4.06, V 4.3, T 1.88
G7: T 1.92, K 2.48, E 2.05, I 2.67, S 1.72, R 2.12, C 1.7, M 2.97
P12: H 1.48, Y 1.97, G 4.32, R 3.86, I 3.72
M4: N 2.92, P 3.2, K 1.72, G 1.5, D 1.88, W 2.32, A 1.92
V5: E 2.64, N 1.66, S 1.21, M 3.81, D 1.1, H 2.32, A 2.48, Q 1.87, T 1.89, G 2.89, P 2.12
S18: D 2.01, W 4.89, I 5.22, R 4.09, P 2.79
V21: S 1.87, D 1.42, L 2.48, N 1.49, F 2.91, E 1.41, R 2.78, H 3.02, A 1.8
